Data on 1 molecule can be found in publication PMC6910828, “Extraction of active RhoGTPases by RhoGDI regulates spatiotemporal patterning of RhoGTPases” (eLife, 2019).

Common to all, as to details: both partners purified
The target of experiment [1] is Cy3-labelled, prenylated Cdc42 G12V, GTPγS-bound (Cy3 at the N-terminus (Cy3 N-t labeled LPETGG peptide joined by sortase); geranylgeranyl by in vitro prenylation (C-terminal prenyl moiety); GTPγS-bound). As to the kind of experiment: membrane extraction (wash-off) assay on supported lipid bilayers, TIRF; as above, GDI titrated between 0 and 20 µM; Koff of the GTPase from the membrane plotted against GDI concentration and fitted with a hyperbolic function (Kd, Vmax); apparent affinities.

Experiment [2] deals with Cy3-labelled, prenylated Rho G14V, GTPγS-bound (Cy3 at the N-terminus (Cy3 N-t labeled LPETGG peptide joined by sortase); geranylgeranyl by in vitro prenylation (C-terminal prenyl moiety); GTPγS-bound). Described as above.
The target of experiment [3] is Cy3-labelled, prenylated Cdc42, wild type, GDP-bound (Cy3 at the N-terminus (Cy3 N-t labeled LPETGG peptide joined by sortase); geranylgeranyl by in vitro prenylation (C-terminal prenyl moiety); GDP-bound). As to the kind of experiment: membrane extraction (wash-off) assay on supported lipid bilayers, TIRF; Cy3-labelled prenylated GTPase (200 nM) equilibrated on 100% DOPC supported lipid bilayers, flushed at 10 µL/sec with imaging buffer (20 mM HEPES pH 7.0, 150 mM KCl, 1.5 mM MgCl2, 0.5 mM EGTA, 100 µM GDP/GTP) alone or with 5 µM RhoGDI; decay fitted with a monoexponential function.
Cy3-labelled, prenylated Cdc42, wild type, GDP-bound (Cy3 at the N-terminus (Cy3 N-t labeled LPETGG peptide joined by sortase); geranylgeranyl by in vitro prenylation (C-terminal prenyl moiety); GDP-bound), sequence (P60953 whole entry): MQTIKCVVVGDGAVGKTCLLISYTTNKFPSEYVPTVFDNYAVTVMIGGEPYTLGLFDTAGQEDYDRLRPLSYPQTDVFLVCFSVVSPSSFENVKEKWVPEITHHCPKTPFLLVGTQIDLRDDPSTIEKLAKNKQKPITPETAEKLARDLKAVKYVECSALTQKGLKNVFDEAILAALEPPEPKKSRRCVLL

Cy3-labelled, prenylated Rho G14V, GTPγS-bound (Cy3 at the N-terminus (Cy3 N-t labeled LPETGG peptide joined by sortase); geranylgeranyl by in vitro prenylation (C-terminal prenyl moiety); GTPγS-bound), sequence (chain, as listed by the source G14V): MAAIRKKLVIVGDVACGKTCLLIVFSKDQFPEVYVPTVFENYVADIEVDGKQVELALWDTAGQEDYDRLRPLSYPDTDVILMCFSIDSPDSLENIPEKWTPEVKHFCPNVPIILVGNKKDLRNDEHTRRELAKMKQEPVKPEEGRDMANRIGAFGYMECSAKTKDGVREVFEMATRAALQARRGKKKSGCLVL
Cy3-labelled, prenylated Cdc42 G12V, GTPγS-bound (Cy3 at the N-terminus (Cy3 N-t labeled LPETGG peptide joined by sortase); geranylgeranyl by in vitro prenylation (C-terminal prenyl moiety); GTPγS-bound), sequence (chain, as listed by the source G12V): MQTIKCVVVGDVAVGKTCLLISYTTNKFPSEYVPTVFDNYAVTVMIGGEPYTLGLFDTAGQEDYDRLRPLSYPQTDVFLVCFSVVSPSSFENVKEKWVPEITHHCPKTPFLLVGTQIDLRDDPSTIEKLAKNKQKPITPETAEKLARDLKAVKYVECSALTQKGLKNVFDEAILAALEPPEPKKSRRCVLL

B1: Xenopus laevis RhoGDI, wild type (natural protein)
chain: MAEHEPTPEQLHQIAAENQDEEHSVDYKPPAQKSIKEIQELDQDDESLRKYKEALLGSLPSSADPEASNVVVTKLTLLCDCAPGPLELDLTGDLEKFKKQSFTLKEGVEYRIKISFKVNKEIVSGLRYQQQTYRKGVRLDRTRYMVGSYGPRVDEYEFLTPIEEAPNGMLARGCYNIKSLFTDDDKSNHLSWEWNLHIKNDWKS
For the molecule B1, the “fold difference in extraction, GDP-bound GTPase over GTPγS-bound G12V” value in experiment [1] stood at 1.5 fold. In addition, the “fold difference in extraction, GDP-bound GTPase over GTPγS-bound G14V” value in experiment [2] was determined as 1.5 fold. For the same molecule, in experiment [3], the “fold acceleration of the dissociation of Cdc42:GDP from the membrane by excess GDI” value is about 20 fold.
